For one assay, the target named is human CCR8 (human) (UniProt P51685). Put plainly: cell-based or functional assay.
Another assay concerns the target T1, human CCR4 (human) (UniProt P51679).
T1 sequence (looked up): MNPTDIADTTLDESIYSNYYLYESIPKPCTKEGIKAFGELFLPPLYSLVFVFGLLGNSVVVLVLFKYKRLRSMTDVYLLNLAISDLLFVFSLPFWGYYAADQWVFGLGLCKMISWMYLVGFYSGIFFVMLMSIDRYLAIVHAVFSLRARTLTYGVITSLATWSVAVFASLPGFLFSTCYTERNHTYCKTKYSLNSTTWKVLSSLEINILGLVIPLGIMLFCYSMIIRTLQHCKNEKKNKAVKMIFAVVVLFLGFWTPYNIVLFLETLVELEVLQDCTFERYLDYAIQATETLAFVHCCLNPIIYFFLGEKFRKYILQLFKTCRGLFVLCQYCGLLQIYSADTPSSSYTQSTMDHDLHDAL
Put plainly: FACS on ExpiCHO-S-human CCR4 cells.

A further assay addresses T2, human CCR1 (human) (UniProt P32246).
T2 sequence (looked up): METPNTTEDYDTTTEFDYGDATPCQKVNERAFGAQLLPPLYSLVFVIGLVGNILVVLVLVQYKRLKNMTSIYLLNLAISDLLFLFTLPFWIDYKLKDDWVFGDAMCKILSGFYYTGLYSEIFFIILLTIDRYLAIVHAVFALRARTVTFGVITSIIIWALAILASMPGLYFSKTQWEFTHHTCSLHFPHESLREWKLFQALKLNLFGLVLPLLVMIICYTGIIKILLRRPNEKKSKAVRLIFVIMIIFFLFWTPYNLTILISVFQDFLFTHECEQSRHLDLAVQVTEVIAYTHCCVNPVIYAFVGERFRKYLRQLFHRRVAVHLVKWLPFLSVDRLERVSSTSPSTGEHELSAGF
The assay is described as follows: FACS on ExpiCHO-S-human CCR1 cells.

human CCR8 (human), sequence (P51685 whole entry): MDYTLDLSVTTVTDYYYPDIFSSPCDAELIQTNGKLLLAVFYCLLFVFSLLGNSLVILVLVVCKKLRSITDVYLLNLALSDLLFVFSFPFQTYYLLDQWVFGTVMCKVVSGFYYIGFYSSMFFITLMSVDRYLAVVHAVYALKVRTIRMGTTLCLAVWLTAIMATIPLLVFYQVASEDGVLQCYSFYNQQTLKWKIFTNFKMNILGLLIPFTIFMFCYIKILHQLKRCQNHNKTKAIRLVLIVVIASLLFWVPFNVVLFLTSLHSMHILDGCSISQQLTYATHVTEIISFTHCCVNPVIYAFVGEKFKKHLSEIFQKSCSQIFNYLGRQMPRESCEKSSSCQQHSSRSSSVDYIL

B1: CCL1 (CN-07, Almac) (ligand, UniProt P22362 24-96, looked up)
chain: KSMQVPFSRCCFSFAEQEIPLRAILCYRNTSSICSNEGLIFKLKRGKEACALDTVGWVQRHRKMLRHCPSKRK
In the assay with human CCR8 (human), B1 displayed a β-arrestin recruitment EC50 (CHO-K1 cells co-expressing PK-tagged human CCR8 and EA) of 288 pM.

B2: Hu149-11G1x (antibody, V domains shown, not shown: a dimerising Fc or GST)
VH: EVQLVESGGGLVQPGGSLKLSCAASGFTFNTYAMNWVRQASGKGLEWVGRIRSKSNFYATAYAASVKGRFTISRDDSKNTAYLQMNSLKTEDTAVYYCTRGREYGSSYAMDYWGQGTLVTVSS
VL: DIVMTQSPLSLPVTPGEPASISCRSSKSLLHSNANTYLYWFLQKPGQSPQLLIYRMSNLASGVPDRFSGSGSGTDFTLKISRVEAEDVGVYYCMQHLEYPLTFGGGTKVELK
As to B2, in the assay with human CCR8 (human), the EC50, ADCC reporter, F variant CD16a/NFAT-Jurkat, target CHO-K1-human CCR8 cells is 3.51 pM; the EC50, ADCC reporter, F variant CD16a/NFAT-Jurkat, target HuT78 cells was determined as 4.6 pM; the EC50, ADCC reporter, V variant CD16a/NFAT-Jurkat, target CHO-K1-human CCR8 cells amounted to 4.87 pM; the EC50, ADCC reporter, V variant CD16a/NFAT-Jurkat, target HuT78 cells came out at 5.59 pM. In the assay with human CCR8 (human), this molecule yielded an EC50, ADCC with human PBMCs, target CHO-K1-human CCR8 cells of 0.384 pM; a Max (RLU), ADCC reporter, F variant CD16a/NFAT-Jurkat, target CHO-K1-human CCR8 cells of 8.34e+06 RLU; a Max (RLU), ADCC reporter, F variant CD16a/NFAT-Jurkat, target HuT78 cells of 1.51e+07 RLU; a Max (RLU), ADCC reporter, V variant CD16a/NFAT-Jurkat, target CHO-K1-human CCR8 cells of 4.09e+06 RLU. Moreover, in the assay with human CCR8 (human), the Max (RLU), ADCC reporter, V variant CD16a/NFAT-Jurkat, target HuT78 cells stood at 9.06e+06 RLU and the Max specific lysis (%), ADCC with human PBMCs, target CHO-K1-human CCR8 cells came out at 44.2%.

B3: Hu149-4 (antibody, human IgG1, V domains shown)
VH: EVQLVESGGGLVQPGGSLKLSCAASGFTFNTYAMNWVRQASGKGLEWVGRIRSKSNFYATYYAASVKGRFTISRDDSKNTAYLQMNSLKTEDTAVYYCTRGRDYGSSYAMDYWGQGTLVTVSS
VL: DIVMTQSPLSLPVTPGEPASISCRSSKSLLHSNANTYLYWFLQKPGQSPQLLIYRMSNLASGVPDRFSGSGSGTDFTLKISRVEAEDVGVYYCMQHLEYPLTFGGGTKVELK
In the assay with human CCR4 (human), B3 displayed a Max MFI of 44 MFI.

B4: Hu149-12G1x (antibody, V domains shown, not shown: a dimerising Fc or GST)
VH: EVQLVESGGGLVQPGGSLKLSCAASGFTFNTYAMNWVRQASGKGLEWVGRIRSKSNFYATAYAASVKGRFTISRDDSKNTAYLQMNSLKTEDTAVYYCTRGKEYGSSYAMDYWGQGTLVTVSS
VL: DIVMTQSPLSLPVTPGEPASISCRSSKSLLHSNANTYLYWFLQKPGQSPQLLIYRMSNLASGVPDRFSGSGSGTDFTLKISRVEAEDVGVYYCMQHLEYPLTFGGGTKVELK
In the assay with human CCR8 (human), B4 came in with an EC50, ADCC reporter, F variant CD16a/NFAT-Jurkat, target CHO-K1-human CCR8 cells of 2.99 pM; an EC50, ADCC reporter, F variant CD16a/NFAT-Jurkat, target HuT78 cells of 4.28 pM; an EC50, ADCC reporter, V variant CD16a/NFAT-Jurkat, target CHO-K1-human CCR8 cells of 5.05 pM; an EC50, ADCC reporter, V variant CD16a/NFAT-Jurkat, target HuT78 cells of 4.58 pM. In the assay with human CCR8 (human), this molecule displayed an EC50, ADCC with human PBMCs, target CHO-K1-human CCR8 cells of 0.828 pM; a Max (RLU), ADCC reporter, F variant CD16a/NFAT-Jurkat, target CHO-K1-human CCR8 cells of 8.27e+06 RLU; a Max (RLU), ADCC reporter, F variant CD16a/NFAT-Jurkat, target HuT78 cells of 1.56e+07 RLU; a Max (RLU), ADCC reporter, V variant CD16a/NFAT-Jurkat, target CHO-K1-human CCR8 cells of 4.13e+06 RLU. Also, in the assay with human CCR8 (human), the Max (RLU), ADCC reporter, V variant CD16a/NFAT-Jurkat, target HuT78 cells was found to be 8.88e+06 RLU and the Max specific lysis (%), ADCC with human PBMCs, target CHO-K1-human CCR8 cells amounted to 53%.

B5: Hu149-9 (antibody, human IgG1, V domains shown)
VH: EVQLVESGGGLVQPGGSLKLSCAASGFTFNTYAMNWVRQASGKGLEWVGRIRSKSNFYATAYAASVKGRFTISRDDSKNTAYLQMNSLKTEDTAVYYCTRGRDYGSSYAMDYWGQGTLVTVSS
VL: DIVMTQSPLSLPVTPGEPASISCRSSKSLLHSNANTYLYWFLQKPGQSPQLLIYRMSNLASGVPDRFSGSGSGTDFTLKISRVEAEDVGVYYCMQHLEYPLTFGGGTKVELK
In the case of B5, the Max MFI turned out to be 32.8 MFI in the assay with human CCR4 (human) and 226 MFI with human CCR1 (human).

Values taken from patent publication US20250034266A1.
